B1: CPEB3 Ribozyme (parent)
chain: GGGGGCCACAGCAGAAGCGUUCACGUCGCGGCCCCUGUCAGAUUCUGGUGAAUCUGCGAAUUCUGCUGU

Variants of: B1
Experiment: self-cleavage, relative activity (ratio to wild type); higher = more cleavage; co-transcriptional

Row | Variant | self-cleavage
1 | G30U A52U | 0.342
2 | G30A C45A | 0.807
3 | G31A G47A | 0.897
4 | G31A G47C | 0.921
5 | G30C C57U | 0.244
6 | G30C C57A | 0.302
7 | G30A C57G | 0.247
8 | G30A C57A | 0.258
9 | G30C A51U | 0.61
10 | G30U A40C | 0.192
11 | G30U A40U | 0.214
12 | G30A C33G | 0.227
13 | G30A A42U | 0.677
14 | G30A G58A | 0.682
15 | G30A G58C | 0.858
16 | G30A G58U | 0.896
17 | G30C C32U | 0.636
18 | G30C C32G | 0.225
19 | G30A C66A | 0.559
20 | G30A A51C | 0.718
21 | G30A C54G | 0.333

Row | Variant | self-cleavage
22 | G30C G31U | 0.224
23 | G30C U61C | 0.242
24 | G30C U61A | 0.258
25 | G31A G48A | 0.945
26 | G31A G48C | 0.9
27 | G31A G37U | 0.213
28 | G30A A60U | 0.367
29 | G30A A60G | 0.395
30 | G30U U67G | 0.724
31 | G30U U67C | 0.624
32 | G31A C57G | 0.254
33 | G30A U67C | 0.959
34 | G30U G68A | 0.88
35 | G30U G68U | 0.78
36 | G30C C54A | 0.346
37 | G31A U46G | 0.962
38 | G31A U46C | 0.9
39 | G31A A60C | 0.304
40 | G31A A60U | 0.322
41 | G30A U62G | 0.413
42 | G30A U62A | 0.445

Row | Variant | self-cleavage
43 | G30U G56U | 0.231
44 | G31A C32G | 0.259
45 | G30C C34G | 0.259
46 | G30A C34A | 0.286
47 | G30A C34G | 0.278
48 | G31A C35A | 0.232
49 | G31A C35U | 0.522
50 | G30C C39G | 0.403
51 | G31A C34U | 0.605
52 | G31A C34G | 0.262
53 | G30A U64A | 0.634
54 | G30A U64G | 0.624
55 | G31A C33G | 0.282
56 | G30C G56C | 0.236
57 | G30C G56U | 0.404
58 | G30U G65A | 0.203
59 | G30A G48A | 0.951
60 | G30U C45U | 0.329
61 | G30U C45A | 0.335
62 | G30A A52G | 0.852
63 | G30C U67C | 0.883

Row | Variant | self-cleavage
64 | G30C U67G | 0.94
65 | G31A A52U | 0.888
66 | G31A A52G | 0.907
67 | G30U C57G | 0.186
68 | G30C U53A | 0.437
69 | G30A U55A | 0.638
70 | G30A U46G | 0.888
71 | G30A C39A | 0.362
72 | G30C G50A | 0.621
73 | G30C G50C | 0.536
74 | G30C G50U | 0.679
75 | G30A G37U | 0.196
76 | G30A G37A | 0.23
77 | G30A G37C | 0.19
78 | G30C C63A | 0.292
79 | G30C C33A | 0.248
80 | G30C C33G | 0.302
81 | G30A A59C | 0.275
82 | G30A A59G | 0.708
83 | G30U U61G | 0.215
